Six molecules from PMC8285372, “Biochemical and functional characterization of mutant KRAS epitopes validates this oncoprotein for immunological targeting” (Nature Communications, 2021) can be followed below.

Common to all, as to test: fluorescence polarisation
In experiment [1] the target is soluble HLA-A*02:01 class I molecule (fluorescence polarization assay).
For experiment [2], the target named is soluble HLA-A*11:01 class I molecule (fluorescence polarization assay).
Experiment [3] has as its target soluble HLA-A*03:01 class I molecule (fluorescence polarization assay).
The target in experiment [4] is soluble HLA-B*07:02 class I molecule (fluorescence polarization assay).

B1: KRAS 5-14 wild-type peptide (peptide)
peptide: KLVVVGAGGV
Take B1: in experiment [1], the IC50 stood at 10.9 µM.

B2: gp17-25 peptide, Melanocyte protein PMEL (peptide)
peptide: ALLAVGATK
In the case of B2, the concentration for half-maximal inhibition (IC50) in experiment [2] stood at 0.225 µM; in experiment [3], 0.962 µM.

B3: KRAS G12R 5-14 peptide (peptide)
peptide: KLVVVGARGV
Take B3: the IC50 in experiment [1] came to 20.7 µM.

B4: KRAS G12R 7-16 peptide (peptide)
peptide: VVVGARGVGK
With B4, the figures for the IC50 in experiment [2] and in experiment [3] were 0.566 µM and 3.24 µM, respectively.

B5: KRAS 10-19 wild-type peptide (peptide)
peptide: GAGGVGKSAL
In turn, B5 displayed a 50% inhibitory concentration (IC50) in experiment [4] of 76.9 µM.

B6: KRAS G12R 8-16 peptide (peptide)
peptide: VVGARGVGK
As to B6, the IC50 in experiment [2] came out at 0.634 µM; in experiment [3], 5.3 µM.
